Experimental data as given in US20130023483A1.
Square brackets hold non-standard residues; d marks the D form. Oic = O=C(O)[C@@H]1C[C@@H]2CCCC[C@@H]2N1; 1Nal = N[C@@H](Cc1cccc2ccccc12)C(=O)O; 2Nal = N[C@@H](Cc1ccc2ccccc2c1)C(=O)O; d1Nal = N[C@H](Cc1cccc2ccccc12)C(=O)O; Tic = O=C(O)[C@@H]1Cc2ccccc2CN1; dTic = O=C(O)[C@H]1Cc2ccccc2CN1; dOrn = NCCC[C@@H](N)C(=O)O; Orn = NCCC[C@H](N)C(=O)O; Dab = NCC[C@H](N)C(=O)O; Abu = CC[C@H](N)C(=O)O

Target: chemokine receptor CXCR7 (RDC1) (UniProt P25106)
Experiment: cell-based or functional assay

Sequence of chemokine receptor CXCR7 (RDC1) (P25106 whole entry): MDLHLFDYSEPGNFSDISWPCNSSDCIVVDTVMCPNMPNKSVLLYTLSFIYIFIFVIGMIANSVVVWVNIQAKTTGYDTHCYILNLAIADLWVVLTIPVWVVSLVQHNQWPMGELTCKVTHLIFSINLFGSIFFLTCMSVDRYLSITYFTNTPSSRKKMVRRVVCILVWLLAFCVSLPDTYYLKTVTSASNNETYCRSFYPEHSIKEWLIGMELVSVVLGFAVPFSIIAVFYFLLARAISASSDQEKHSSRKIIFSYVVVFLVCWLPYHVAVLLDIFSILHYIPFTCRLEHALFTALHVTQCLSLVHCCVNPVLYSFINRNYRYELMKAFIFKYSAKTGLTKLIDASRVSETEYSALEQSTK

| Substance | β-Arrestin EC50 |
| --- | --- |
| cyclo(-1Nal-^DArg-Trp-Arg-^DPro-Azt-) (peptide) | 146 nM |
| cyclo(W[dF]WK[dP][Tic]) | 16.5 nM |
| cyclo(F[dF]WR[dP][Tic]) | 22.5 nM |
| cyclo(-1Nal-^DHis-Tyr-Arg-^DPro-Azt-) (peptide) | 44.4 nM |
| cyclo(-Trp-^DPhe-Trp-Arg-^DPro-(4S)-Hyp(Bn)-) (peptide) | 1.7 nM |
| cyclo(R[dH]WR[dP][Tic]) | 144 nM |
| cyclo(W[dF]W[Orn][dP][Tic]) | 12.1 nM |
| cyclo(W[dF][2Nal]R[dP][Tic]) | 16.9 nM |
| cyclo([1Nal][dH]IR[dP][Tic]) | 347 nM |
| cyclo(-Trp-^DPhe-Trp-Arg-^DPro-Tiq-) (peptide) | 0.4 nM |
| cyclo(-Trp-^DHis-Trp-Arg-^DPro-Azt-) (peptide) | 342 nM |
| cyclo(-His(Me)-^DPhe-Trp-Arg-^DPro-Tic-) (peptide) | 32.5 nM |
| cyclo(-Trp-^DArg-Trp-Arg-^DPro-Azt-) (peptide) | 170 nM |
| cyclo(-Trp-^DThr-Tyr-Arg-^DPro-Azt-) (peptide) | 148 nM |
| cyclo(R[dW]HR[dP][Tic]) | 234 nM |
| cyclo(W[dR]HR[dP][Tic]) | 348 nM |
| cyclo(-Trp-^DArg-Ile-Arg-^DPro-Azt-) (peptide) | 47.7 nM |

| Substance | β-Arrestin EC50 |
| --- | --- |
| cyclo(W[dR]WR[dP][Tic]) | 128 nM |
| cyclo(W[dF]WR[dTic]P) | 83.6 nM |
| cyclo(R[dF]WR[dP][Tic]) | 12.8 nM |
| cyclo(W[dF]YR[dP][Tic]) | 326 nM |
| cyclo(-Trp-^DPhe-Trp-Arg-^DPip-Pro-) (peptide) | 78.7 nM |
| cyclo(I[dH]WR[dP][Tic]) | 70.8 nM |
| cyclo(W[dF]RR[dP][Tic]) | 178 nM |
| cyclo(A[dF]WR[dP][Tic]) | 163 nM |
| cyclo(Y[dF]WR[dP][Tic]) | 11.5 nM |
| cyclo([Abu][dR]RW[dP][Tic]) | 97.5 nM |
| cyclo(W[dF]WR[dP][Oic]) | 0.8 nM |
| cyclo(-1Nal-^DArg-Ile-Arg-^DPro-Azt-) (peptide) | 41.2 nM |
| cyclo(W[dF]FR[dP][Tic]) | 75.7 nM |
| cyclo(W[dH]WR[dP][Tic]) | 204 nM |
| cyclo(W[dOrn]WR[dP][Tic]) | 111 nM |
| cyclo(-1Nal-^DHis-Ile-Arg-^DPro-Azt-) (peptide) | 85.7 nM |
| cyclo([2Nal][dF]WR[dP][Tic]) | 8.9 nM |

Second part, the substance after the results:

| β-Arrestin EC50 | Substance |
| --- | --- |
| 269 nM | cyclo(H[d1Nal]HW[dP][Tic]) |
| 4.8 nM | cyclo(W[dF]WR[dP][Tic]) |
| 217 nM | cyclo(W[dR]HW[dP][Tic]) |
| 34.3 nM | cyclo(I[dR]IR[dP][Tic]) |
| 208 nM | cyclo(-Trp-^DArg-Trp-Ile-^DPro-Azt-) (peptide) |
| 64.9 nM | cyclo(W[dW]WR[dP][Tic]) |
| 226 nM | cyclo(H[dW]HR[dP][Tic]) |
| 148 nM | cyclo(W[dF]IR[dP][Tic]) |
| 94.5 nM | cyclo(W[dF]WY[dP][Tic]) |
| 32.1 nM | cyclo(H[dF]WR[dP][Tic]) |
| 63.4 nM | cyclo(W[dI]WR[dP][Tic]) |
| 344 nM | cyclo(-Trp-^DHis-Ile-Arg-^DPro-Azt-) (peptide) |
| 280 nM | cyclo([1Nal][dR]WR[dP][Tic]) |
| 317 nM | cyclo(I[dW]HR[dP][Tic]) |
| 12.6 nM | cyclo(W[dF]W[Dab][dP][Tic]) |
| 61.6 nM | cyclo([1Nal][dF]WR[dP][Tic]) |
| 18.3 nM | cyclo(W[dF]WH[dP][Tic]) |
